This note sets out measurements from publication PMC5549332 (BMC Plant Biology, 2017).

For data set [1], the target named is T1, GLO4 (Oryza sativa, UniProt Q6YT73).
T1 construct: gene GLO5; complete ORF, N-terminal 6xHis tag kept, expressed in Saccharomyces cerevisiae INVSc1, Ni-IDA purified, subunit about 40 kDa, homo-oligomer; GLO4/GLO5 names may be swapped in databases, go by printed locus
T1 sequence (Q6YT73 1-369): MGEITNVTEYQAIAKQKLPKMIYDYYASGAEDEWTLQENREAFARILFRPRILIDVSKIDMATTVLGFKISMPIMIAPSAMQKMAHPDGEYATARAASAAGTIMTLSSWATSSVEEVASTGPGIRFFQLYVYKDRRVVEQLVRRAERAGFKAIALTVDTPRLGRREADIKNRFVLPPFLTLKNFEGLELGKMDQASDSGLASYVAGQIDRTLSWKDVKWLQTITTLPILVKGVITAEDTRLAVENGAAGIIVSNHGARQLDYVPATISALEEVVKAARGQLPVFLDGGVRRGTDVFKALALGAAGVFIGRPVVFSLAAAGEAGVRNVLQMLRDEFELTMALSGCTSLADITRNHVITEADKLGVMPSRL
In words: peroxidase-coupled H2O2 assay, […] nm; slope replot of Lineweaver-Burk. It is filed as biochemical.

The target of data set [2] is T2, GLO3 (Oryza sativa, UniProt Q7FAS1).
T2 construct: complete ORF, N-terminal 6xHis tag kept, expressed in Saccharomyces cerevisiae INVSc1, Ni-IDA purified, subunit about 40 kDa
T2 sequence (Q7FAS1 1-367): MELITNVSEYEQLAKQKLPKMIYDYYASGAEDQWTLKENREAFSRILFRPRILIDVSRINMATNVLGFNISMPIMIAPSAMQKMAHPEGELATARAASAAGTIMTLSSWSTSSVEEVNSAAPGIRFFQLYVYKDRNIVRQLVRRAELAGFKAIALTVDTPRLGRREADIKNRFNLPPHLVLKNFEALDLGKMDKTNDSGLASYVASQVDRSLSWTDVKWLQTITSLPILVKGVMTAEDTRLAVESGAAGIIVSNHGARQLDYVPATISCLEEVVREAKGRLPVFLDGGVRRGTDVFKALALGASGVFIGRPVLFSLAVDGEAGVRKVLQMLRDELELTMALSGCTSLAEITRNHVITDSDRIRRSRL
The data set is described as above. It is filed as biochemical.

The target in data set [3] is T3, GLO1 (Oryza sativa, UniProt Q10CE4).
T3 construct: complete ORF, N-terminal 6xHis tag kept, expressed in Saccharomyces cerevisiae INVSc1, Ni-IDA purified, subunit about 40 kDa, homo-oligomer
T3 sequence (Q10CE4 1-369): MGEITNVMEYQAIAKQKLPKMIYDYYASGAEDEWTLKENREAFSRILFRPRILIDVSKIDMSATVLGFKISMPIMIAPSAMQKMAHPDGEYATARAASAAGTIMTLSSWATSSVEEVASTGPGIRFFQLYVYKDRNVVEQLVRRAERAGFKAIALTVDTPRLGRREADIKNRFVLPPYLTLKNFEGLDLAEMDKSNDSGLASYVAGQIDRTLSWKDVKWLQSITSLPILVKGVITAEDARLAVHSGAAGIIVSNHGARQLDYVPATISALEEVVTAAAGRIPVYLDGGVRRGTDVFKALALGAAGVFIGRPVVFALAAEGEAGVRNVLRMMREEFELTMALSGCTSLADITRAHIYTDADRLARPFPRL
Described as above. It is filed as biochemical.

Data set [4] has as its target T4, GLO1 + 4 (Oryza sativa, UniProt Q10CE4+Q6YT73).
T4 construct: co-expressed N-terminally 6xHis-tagged GLO1 (pYES3) and GLO4 (pYES2) in Saccharomyces cerevisiae, Ni-IDA purified; GLO4/GLO5 names may be swapped in databases
T4 sequence (Q10CE4 1-369): T3 sequence (Q10CE4 1-369)
T4 sequence (Q6YT73 1-369): T1 sequence (Q6YT73 1-369)
The data set is described as above. It is filed as biochemical.

Substrate in data set [5]: C[C@H](O)C(=O)O
Briefly: purified protein. The following applies: pH 7.8, 30 °C, 0.1 mM FMN.

Substrate in data set [6]: O=C(O)CO
Briefly: purified protein. The note with it: pH 7.8, 30 °C, 0.1 mM FMN.

Substrate in data set [7]: O=C(O)[C@H](O)CO
In words: purified protein. It is filed as biochemical, Oryza sativa. The following applies: pH 7.8, 30 °C, 0.1 mM FMN.

Substrate in data set [8]: O=CC(=O)O
Briefly: purified protein. The note with it: pH 7.8, 30 °C, 0.1 mM FMN. The format is biochemical, Oryza sativa.

As for `O=C(O)C(=O)O` [oxalate], the inhibition constant (Ki) in data set [1] was found to be 6.34 ± 1.74 mM; in data set [2], 5.6 ± 1.23 mM; in data set [3], 4.57 ± 0.93 mM; in data set [4], 5.49 ± 1.04 mM.

B1: GLO1 (Oryza sativa Japonica Group) (protein)
chain: T3 sequence (Q10CE4 1-369)
notes: complete ORF, N-terminal 6xHis tag kept, expressed in Saccharomyces cerevisiae INVSc1, Ni-IDA purified, subunit about 40 kDa, homo-oligomer
For B1, the Km came out at 5.128 ± 0.315 mM in data set [5], 0.499 ± 0.041 mM in data set [6], 4.976 ± 0.305 mM in data set [7] and 6.505 ± 0.412 mM in data set [8].

B2: GLO1 + 4 (Oryza sativa Japonica Group) (protein)
chain 1: T3 sequence (Q10CE4 1-369)
chain 2: T1 sequence (Q6YT73 1-369)
notes: co-expressed N-terminally 6xHis-tagged GLO1 (pYES3) and GLO4 (pYES2) in Saccharomyces cerevisiae, Ni-IDA purified; GLO4/GLO5 names may be swapped in databases
With B2, the Km was found to be 5.227 ± 0.448 mM in data set [5], 0.423 ± 0.038 mM in data set [6], 4.511 ± 0.307 mM in data set [7] and 4.883 ± 0.321 mM in data set [8].

B3: GLO3 (Oryza sativa Japonica Group) (protein)
chain: T2 sequence (Q7FAS1 1-367)
notes: complete ORF, N-terminal 6xHis tag kept, expressed in Saccharomyces cerevisiae INVSc1, Ni-IDA purified, subunit about 40 kDa
As to B3, the Km in data set [5] worked out at 1.104 ± 0.056 mM; in data set [6], 0.470 ± 0.035 mM; in data set [7], 2.762 ± 0.311 mM; in data set [8], 1.799 ± 0.084 mM.

B4: GLO4 (Oryza sativa Japonica Group) (protein)
chain: T1 sequence (Q6YT73 1-369)
notes: complete ORF, N-terminal 6xHis tag kept, expressed in Saccharomyces cerevisiae INVSc1, Ni-IDA purified, subunit about 40 kDa, homo-oligomer; GLO4/GLO5 names may be swapped in databases, go by printed locus
Take B4: the Michaelis-Menten constant (Km) in data set [5] is given as 4.720 ± 0.291 mM; in data set [6], 0.613 ± 0.050 mM; in data set [7], 4.367 ± 0.395 mM; in data set [8], 5.983 ± 0.333 mM.
